In one assay the test system is MCF-7 cells. The assay is described as follows: Cell viability assay (XTT). The following applies: MCF-7, Losartan alone, all concentrations used. Format: cell-based. As to the method: (§1) MCF-7, T47D and MDA-MB-231 breast cancer cells were obtained from The American Tissue Culture Collection (LGC Promochem, Teddington, UK). Rat aortic smooth muscle cells (RASMC) were developed from primary culture (Barker et al., 1996). MCF-7 cells were maintained in Minimal Essential Medium (MEM), T47D and MDA-MB-231 cells in RPMI 1640 medium, and RASMC were maintained in Dulbecco's Modified Eagle's Medium (DMEM). All media were supplemented with 2 mM L-glutamine, 10% fetal bovine serum (FBS), 50 U/ml penicillin and 0.05 mg/ml streptomycin. Cells were maintained at 37° C. in a humidified atmosphere ([…], 5% CO2).
(§2) Confluent cell monolayers were removed from tissue culture flasks using trypsin/EDTA. Cells (15×10^3 per well) were seeded into 96 well tissue culture plates containing the appropriate medium for each cell line. […] Cell viability was assessed by the ability of metabolically active cells to reduce 2,3-bis[2-Methoxy-4-nitro-5-sulphophenyl]-2H-tetrazolium-5-carboxyanilide inner salt (XTT) to the coloured formazan product. Absorbance was measured using a Multiskan Ascent microplate reader (Thermo Labsystem, Helsinki, Finland) at a wavelength of 450 nm and a reference wavelength of 630 nm. Each measurement was performed in triplicate. IC50s were calculated using a non-linear regression formula using GraphPad Prism v4.0 software (GraphPad Software Inc, San Diego Calif., USA).
In general terms: Formazan colour is commonly taken as a measure of viable cells.

Another assay concerns MDA-MB-231 cells. Put plainly: Cell viability assay (XTT). The following applies: MDA-MB-231, Losartan alone, all concentrations used. Format: cell-based. As to the method:
as §1, §2

Assay [1] relates to T47D cells. Put plainly: Cell viability assay (XTT). Format: cell-based. As to conditions: Homo sapiens, Losartan alone, 25 μmol/L. As to the method: as §1, §2
Assay [2] concerns T47D cells. Put plainly: Apoptosis - caspase-3/7 activity. The format is cell-based. The following applies: 100 nmol/L angiotensin II, 12 hours. The source says:
Cells were harvested using Trypsin/EDTA and counted.

Assay [3] has as its target peptide antigen EDGIKRIQDDC-biotin (from AT1-receptor N-terminal region) (Rattus norvegicus, UniProt P25095). The assay is described as follows: Antigen binding ELISA of scFv variants. As to conditions: for activity in ELISA compared with murine scFv (12D): FIG. 13, indirect comparison against purified IgM; for binding to peptide antigen by ELISA versus murine scFv (12D and 11B): absorbance 450 nm per mg protein/well, FIG. 12. As to the method:
Enzyme-linked immunosorbant assays (ELISAs) were carried out in Maxisorp 96-well plates coated with Peptide antigen EDGIKRIQDDC-biotin (SEQ ID NO:14) (2-8 ug/ml in carbonate buffer pH 9.6) overnight at 4 or 37 C. The coated wells were blocked using 1% alkaline soluble casein (Blocking buffer) for 1 h at RT, then washed three times with PBS containing 0.1% v/v Tween 20. ScFv samples diluted between 1:1 to 1:100 in PBS-T were added and incubated for 1 h at RT before washing as before. A secondary HRP-conjugated anti-His-Tag antibody was then added (diluted 1:1000 in blocking buffer) for 1 h at RT. Wells were then washed three times in PBS-T then twice with PBS (without Tween 20). 100 μl of TMB substrate solution was added and colour was allowed to develop for 30 min, at which time 100 μl of 2M sulphuric acid was added to stop the reaction. Absorbance at 450 nm was read on a plate reading spectrophotometer. Protein concentrations were determined using an Eppendorf Biophotometer reading at 280 nm and using an extinction coefficient for the scFv of 1.7 as above.

Assay [4] has as its target biotinylated peptide antigen (AT1 receptor) (Rattus norvegicus, UniProt P25095). The assay is described as follows: Quartz crystal microbalance binding (Attana 100). As to conditions: 9 μg/ml, 100 second injection period. As to the method: Data were obtained comparing the characteristics of binding of the scFv variants and IgM to immobilised peptide antigen using the Attana 100 Quartz Crystal Microbalance. This involved use of a streptavidin (0.1 mg/ml)-coated biotin “chip” (gold-plated quartz crystal in an Attana 100 Biosensor (Quartz crystal microbalance (QCM)) (Attana AB, Stockholm, Sweden). Peptide antigen corresponding to that sequence used to raise the original murine hybridoma, biotinylated at the C-terminus, was then run across the chip at a concentration of 4 μg/ml to create a binding target for scFvs and IgM that were subsequently run across the surface of the QCM chip. Attester software (Attana, Sweden) was used to monitor changes in resonance frequency of the QCM chip in response to binding of a test antibody to the antigen. The magnitude of deflection in Hz over the period of sample injection of 100 s in Hz/second was determined for each antibody at a concentration of 9 μg/ml. The rate at which the antibody was then released from the QCM chip was also measured in Hz/second from the straight-line portion of the biosensor trace as antibody gradually departed from the chip and as the resonance frequency of the chip decreased. Running buffer was PBS containing 0.005% Tween 20 (PBST) and this was also used to make antibody dilutions to give a final protein concentration of 9 μg/ml in each case. The Attana 100 was set up with a 50 μl injection loop and was running with a constant pump speed of 20 μl/min. Samples and PBST buffer controls were injected over 100 seconds giving a sample volume across the chip of 33 μl. 100 mM (6.6 μl volume) phosphoric acid solution was used to regenerate the strepavidin-antigen surface between individual experimental sample runs.

“Also recorded” adds a separate entry of the source.

A word on the inhibition: it is how much of the control response was suppressed. High values mean strong suppression, low ones little suppression.

As for `CCCCc1nc(Cl)c(CO)n1Cc1ccc(-c2ccccc2-c2nn[nH]n2)cc1` [Losartan, reference compound], the “effect on cell survival” value in the assay with MCF-7 cells and with MDA-MB-231 cells was “unaffected” each time. The same molecule registered an inhibition at 25 µM with T47D cells [1] of 43%.

“angiotensin II (DRVYIHPF; Angiotensin-2; UniProt P01019 25-32, looked up) [peptide hormone added at 100 nmol/L in the cell assays, reference compound]”: the “caspase-3/7 activity compared with untreated control” value in the assay on T47D cells [2] was “inhibited caspase-3/7 activity”.

B1: HuCY: humanised (resurfaced) variant of scFv R6313/G2, SEQ ID NO:27 (protein)
scFv: QVQLVQSGPELVKPGASVKISCKASGYSFTGYNMNWVKQAPGKSLEWIGNIDPYYGGTTYNQKFKGKATLTVDKSSSTAYMQLKSLRSEDTAVYYCAREVDYWGQGTTVTVSSGGGGSGGGGSGGGGSDIVLTQSPASLAVSLGERATISCRASKSVSTSGYSYMHWYQQKPGQPPRLLIYLVSNLESGVPDRFSGSGSGTDFTLTISSVEAEDVAVYYCQHIRELTRSEGTKLEIKR
modifications: HuCY
For the molecule B1, in assay [3], the “activity in ELISA compared with murine scFv (12D)” value is “higher activity”; the “binding to peptide antigen by ELISA versus murine scFv (12D and 11B)” value is reported as “more strongly; also recorded: increased binding”.

B2: var4: humanised variant of scFv R6313/G2 with two further changes in VLCDR2 (LVSDLED), SEQ ID NO:29 (protein)
scFv: QVQLVQSGPELVKPGASVKISCKASGYSFTGYNMNWVKQAPGKGLEWIGNIDPYYGGTTYNQKFKGKATLTVDKSSSTAYMQLKSLRSEDTAVYYCAREVDYWGQGTTVTVSSGGGGSGGGGSGGGGSDIVLTQSPASLAVSLGERATISCRASKSVSTSGYSYMHWYQQKPGQPPRLLIYLVSDLEDGVPDRFSGSGSGTDFTLTISSVEAEDVAVYYCQHIRELTRSEGTKLEIKR
modifications: var4
Regarding B2, the “increase in binding to the antigen compared with murine scFv” value in assay [3] (ELISA, same amount and purity of scFv) is on record as 5-10 fold. In assay [3], the “activity in ELISA compared with murine scFv (12D)” value was “higher activity”; the “binding to peptide antigen by ELISA versus murine scFv (12D and 11B)” value is on record as “more strongly; also recorded: increased binding; also recorded: most significantly increased binding”. In addition, in assay [4], the “change in resonance frequency (apparent on-rate, Hz/second) compared with IgM” value is reported as “significantly greater increases in resonance frequency; also recorded: significantly greater changes in resonance frequency”.

B3: var3: humanised variant of scFv R6313/G2, framework changes only, SEQ ID NO:28 (protein)
scFv: QVQLVQSGPELVKPGASVKISCKASGYSFTGYNMNWVKQAPGKGLEWIGNIDPYYGGTTYNQKFKGKATLTVDKSSSTAYMQLKSLRSEDTAVYYCAREVDYWGQGTTVTVSSGGGGSGGGGSGGGGSDIVLTQSPASLAVSLGERATISCRASKSVSTSGYSYMHWYQQKPGQPPRLLIYLVSNLESGVPDRFSGSGSGTDFTLTISSVEAEDVAVYYCQHIRELTRSEGTKLEIKR
modifications: var3
Take B3: the “binding to peptide antigen by ELISA versus murine scFv (12D and 11B)” value in assay [3] is on record as “more strongly; also recorded: increased binding”. Also, the “change in resonance frequency (apparent on-rate, Hz/second) compared with IgM” value in assay [4] was “significantly greater increases in resonance frequency; also recorded: significantly greater changes in resonance frequency”.

Source of the values: US8487082B2, “Synthetic scFv analogue to the 6313/G2 (anti angiotensin II type 1 receptor) monoclonal antibody variable regions” (Queen Mary & Westfield College, priority 2008, dated 2013).
